Patent publication US20220185889

Biological target: CTLA-4 Ig functionalized with GzmB substrate (UniProt P16410)
Sequence (P16410 38-161): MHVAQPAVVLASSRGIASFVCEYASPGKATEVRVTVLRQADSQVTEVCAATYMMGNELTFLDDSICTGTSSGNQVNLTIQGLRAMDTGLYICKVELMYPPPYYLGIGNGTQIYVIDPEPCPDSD

matrix metalloproteinase 2, sequence (P08253 110-660): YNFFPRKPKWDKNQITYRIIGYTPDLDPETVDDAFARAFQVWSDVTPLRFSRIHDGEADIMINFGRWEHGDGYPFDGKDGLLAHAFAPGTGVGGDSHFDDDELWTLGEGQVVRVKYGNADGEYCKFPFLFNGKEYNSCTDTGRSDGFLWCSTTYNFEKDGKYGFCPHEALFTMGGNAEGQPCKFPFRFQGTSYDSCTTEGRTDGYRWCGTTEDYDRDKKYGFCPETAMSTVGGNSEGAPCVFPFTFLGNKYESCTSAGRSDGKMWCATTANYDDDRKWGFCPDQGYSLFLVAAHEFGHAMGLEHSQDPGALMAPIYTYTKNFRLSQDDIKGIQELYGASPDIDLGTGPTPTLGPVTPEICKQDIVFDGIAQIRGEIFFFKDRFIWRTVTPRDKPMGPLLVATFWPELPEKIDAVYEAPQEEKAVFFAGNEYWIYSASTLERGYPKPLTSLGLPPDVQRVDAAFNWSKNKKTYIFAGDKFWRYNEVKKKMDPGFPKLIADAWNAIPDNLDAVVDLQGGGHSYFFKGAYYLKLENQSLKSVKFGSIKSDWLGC
mannose-associated serine protease 1, sequence (P48740 20-699): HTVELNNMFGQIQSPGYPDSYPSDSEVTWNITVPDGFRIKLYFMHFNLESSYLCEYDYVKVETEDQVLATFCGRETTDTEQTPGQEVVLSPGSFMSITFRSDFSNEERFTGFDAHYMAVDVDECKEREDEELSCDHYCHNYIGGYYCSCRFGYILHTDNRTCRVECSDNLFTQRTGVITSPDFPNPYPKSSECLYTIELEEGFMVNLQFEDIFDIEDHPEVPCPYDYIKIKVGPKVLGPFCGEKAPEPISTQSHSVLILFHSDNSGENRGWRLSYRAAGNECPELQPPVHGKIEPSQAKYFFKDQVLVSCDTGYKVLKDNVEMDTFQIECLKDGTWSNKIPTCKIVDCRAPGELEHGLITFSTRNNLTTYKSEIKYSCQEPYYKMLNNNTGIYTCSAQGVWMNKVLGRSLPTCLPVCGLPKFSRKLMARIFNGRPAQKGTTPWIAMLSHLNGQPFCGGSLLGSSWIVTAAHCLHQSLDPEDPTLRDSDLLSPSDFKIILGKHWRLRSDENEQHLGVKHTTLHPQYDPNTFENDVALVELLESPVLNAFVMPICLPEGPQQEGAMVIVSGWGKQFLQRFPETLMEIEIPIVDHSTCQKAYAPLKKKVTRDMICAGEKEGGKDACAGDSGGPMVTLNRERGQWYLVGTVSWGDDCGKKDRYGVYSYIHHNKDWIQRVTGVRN

| Substance | in vitro cleavage assay |
| --- | --- |
| granzyme B | modified CTLA-4 Ig demonstrated specific cleavage by GzmB |
| matrix metalloproteinase 15 | no cross-cleavage by matrix, complement, or immune proteases |
| mannose-associated serine protease 1 | no cross-cleavage by matrix, complement, or immune proteases |
| matrix metalloproteinase 2 | no cross-cleavage by matrix, complement, or immune proteases |
| matrix metalloproteinase 9 | no cross-cleavage by matrix, complement, or immune proteases |
| Cathepsin B | no cross-cleavage by matrix, complement, or immune proteases |
